Measurements taken from patent US6686177B1, “Insulin analogs with enhanced zinc binding” (Aventis Pharma Deutschland GmbH, priority 1998, dated 2004).

Tests used:
[1] = Zinc binding of insulin analogs (dialysis against zinc-free neutral buffer, HPLC and atomic absorption spectroscopy); format: physicochemical; conditions: for Zinc binding: after extensive dialysis against zinc-free neutral buffer, pH 7.4; for zinc ions bound per hexamer: aqueous neutral solution, not removable by dialysis
Description: The dialyzates were then acidified and analyzed. The concentration of insulin was determined by reversed phase HPLC and that of the zinc by atomic absorption spectroscopy. The zinc values were corrected using the zinc content of a control batch which contained no insulin.

[2] = aqueous neutral solution, not removable by dialysis; cited from earlier work

Substance	Zinc binding [1]	zinc ions bound per hexamer [1]	zinc ions complexed per hexamer via the His(B10) side chains [2]
His(B3)-human insulin [His(B3)-insulin]	6.9 mol of zinc/mol of hexamer	approximately 7 zinc ions/hexamer	
human insulin [reference compound]	2.5 mol of zinc/mol of hexamer		two
Asp(B3)-human insulin [Asp(B3)-insulin]	4.2 mol of zinc/mol of hexamer	4.2 zinc ions/hexamer	
